Laboratory results: patent US20250154500A1 (SEOUL NATIONAL UNIVERSITY R AND DB FOUNDATION, published 2025)
Values belong to the binder of their own block, whether it stands above or below them.

Target: T1, FLAG-tagged ZCCHC2 ΔN (201-1,178 a.a) (human, UniProt Q9C0B9 201-1178)
T1 construct: Transiently expressed in HeLa ZCCHC2 knockout cells; also called pCK-Flag-ZCCHC2 (201-1178); not shown: FLAG tag and any linker to it; The plasmid name pCK-Flag-ZCCHC2 puts the tag at the N-terminus
Assay: anti-FLAG co-immunoprecipitation from HeLa ZCCHC2 KO cells, western blot
Protocol: Data are normalized against the value of the wild-type sample and represented as mean±SEM (n=3). * indicates p<0.05, with a two-sided Student's t-test performed. […] Full-length ZCCHC2 protein and its truncated mutants (ΔC, ΔN) were compared for their ability to interact with TENT4 proteins. TENT4A and GAPDH were detected on the same gel, whereas the other proteins were analyzed on separate gels with the same amounts of samples. Cross-reacting bands are indicated by asterisks.
For co-IP experiment, parental cells and TENT4 dKO cells on a 150 μl plate were lysed on ice for 20 minutes using Buffer A (100 mM KCl, 0.1 mM EDTA, 20 mM HEPES [pH 7.5], 0.4% NP-40, 10% glycerol) containing 1 mM DL-Dithiothreitol (DTT), 1× protease inhibitor, and RNase A (Thermo, EN0531), and then centrifuged. For immunoprecipitation, 12.5 μg of antibody (NMG, anti-TENT4A, and anti-TENT4B) conjugated to protein A and G sepharose beads (1:1 mixture, total 20 μl) was used with 1 mg of the lysates. After incubation at 4° C. for 2 hours, the beads were washed, boiled in 20 μl of 2×SDS buffer, and loaded onto a 4-12% (Novex) SDS-PAGE gel with the ladder (Thermo, 26616 and 26619). For domain co-IP experiment, full-length ZCCHC2, truncated construct of ZCCHC2, and negative construct having FLAG tag were transfected in ZCCHC2KO cells, and the cells were lysed within 2 days. […]

T1 sequence (Q9C0B9 201-1178 limits assumed, stated change not applied): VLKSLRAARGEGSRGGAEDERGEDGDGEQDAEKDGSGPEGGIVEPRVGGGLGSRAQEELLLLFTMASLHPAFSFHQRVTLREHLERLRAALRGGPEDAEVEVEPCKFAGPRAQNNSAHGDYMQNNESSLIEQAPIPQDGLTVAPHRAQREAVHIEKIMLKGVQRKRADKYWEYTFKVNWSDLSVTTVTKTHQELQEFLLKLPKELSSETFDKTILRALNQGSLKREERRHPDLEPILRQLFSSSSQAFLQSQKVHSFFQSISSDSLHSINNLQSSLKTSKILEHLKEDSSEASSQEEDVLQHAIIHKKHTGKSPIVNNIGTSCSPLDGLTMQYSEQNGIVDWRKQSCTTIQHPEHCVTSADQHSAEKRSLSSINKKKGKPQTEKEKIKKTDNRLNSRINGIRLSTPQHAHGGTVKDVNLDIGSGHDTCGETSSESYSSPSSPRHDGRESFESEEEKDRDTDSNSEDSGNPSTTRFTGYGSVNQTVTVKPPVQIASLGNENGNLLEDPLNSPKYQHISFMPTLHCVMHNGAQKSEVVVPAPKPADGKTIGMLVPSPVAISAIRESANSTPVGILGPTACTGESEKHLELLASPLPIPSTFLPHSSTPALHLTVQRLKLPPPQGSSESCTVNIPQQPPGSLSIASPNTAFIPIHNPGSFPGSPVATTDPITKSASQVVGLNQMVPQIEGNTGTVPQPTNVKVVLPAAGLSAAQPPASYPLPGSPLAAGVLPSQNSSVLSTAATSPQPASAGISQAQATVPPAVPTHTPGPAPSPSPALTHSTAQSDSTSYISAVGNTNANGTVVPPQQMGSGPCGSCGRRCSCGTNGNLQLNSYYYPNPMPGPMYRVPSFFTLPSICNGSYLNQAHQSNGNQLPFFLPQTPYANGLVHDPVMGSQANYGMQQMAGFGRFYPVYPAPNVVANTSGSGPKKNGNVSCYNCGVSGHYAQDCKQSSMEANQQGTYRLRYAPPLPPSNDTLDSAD

- binding result: no binding
B1: TENT4A (enzyme, human, UniProt Q5XG87 1-792, looked up)
chain: MDPRVAWIQPEQKGPANALWMQIWETSQGVGRGGSGFASYFCLNSPALDTAAAAGAAGRGSGGLGPALPAASPPPPGPTAPAALPPALLTALGPAAEGARRLHKSPSLSSSSSSSSSNAESGTESPGCSSSSSSSASLGRPGGGRGGAFFNFADGAPSAPGTANGHPGPRGPAPAGSPSQHQFHPGRRKRENKASTYGLNYLLSGSRAAALSGGGGPGAQAPRPGTPWKSRAYSPGIQGLHEEIIDFYNFMSPCPEEAAMRREVVKRIETVVKDLWPTADVQIFGSFSTGLYLPTSDIDLVVFGKWERPPLQLLEQALRKHNVAEPCSIKVLDKATVPIIKLTDQETEVKVDISFNMETGVRAAEFIKNYMKKYSLLPYLILVLKQFLLQRDLNEVFTGGISSYSLILMAISFLQLHPRIDARRADENLGMLLVEFFELYGRNFNYLKTGIRIKEGGAYIAKEEIMKAMTSGYRPSMLCIEDPLLPGNDVGRSSYGAMQVKQVFDYAYIVLSHAVSPLARSYPNRDAESTLGRIIKVTQEVIDYRRWIKEKWGSKAHPSPGMDSRIKIKERIATCNGEQTQNREPESPYGQRLTLSLSSPQLLSSGSSASSVSSLSGSDVDSDTPPCTTPSVYQFSLQAPAPLMAGLPTALPMPSGKPQPTTSRTLIMTTNNQTRFTIPPPTLGVAPVPCRQAGVEGTASLKAVHHMSSPAIPSASPNPLSSPHLYHKQHNGMKLSMKGSHGHTQGGGYSSVGSGGVRPPVGNRGHHQYNRTGWRRKKHTHTRDSLPVSLSR
notes: Endogenous protein of HeLa (human) cells; also called PAPD7; TRF4-1

- binding result: no binding
B2: TENT4B (enzyme, human, UniProt Q8NDF8 1-572, looked up)
chain: MYRSGERLLGSHALPAEQRDFLPLETTNNNNNHHQPGAWARRAGSSASSPPSASSSPHPSAAVPAADPADSASGSSNKRKRDNKASGGRAAGGGRADGGGVVYSGTPWKRRNYNQGVVGLHEEISDFYEYMSPRPEEEKMRMEVVNRIESVIKELWPSADVQIFGSFKTGLYLPTSDIDLVVFGKWENLPLWTLEEALRKHKVADEDSVKVLDKATVPIIKLTDSFTEVKVDISFNVQNGVRAADLIKDFTKKYPVLPYLVLVLKQFLLQRDLNEVFTGGIGSYSLFLMAVSFLQLHPREDACIPNTNYGVLLIEFFELYGRHFNYLKTGIRIKDGGSYVAKDEVQKNMLDGYRPSMLYIEDPLQPGNDVGRSSYGAMQVKQAFDYAYVVLSHAVSPIAKYYPNNETESILGRIIRVTDEVATYRDWISKQWGLKNRPEPSCNGPVSSSSATQSSSSDVDSDATPCKTPKQLLCRPSTGNRVGSQDVSLESSQAVGKMQSTQTTNTSNSTNKSQHGSARLFRSSSKGFQGTTQTSHGSLMTNKQHQGKSNNQYYHGKKRKHKRDAPLSDLCR
notes: Endogenous protein of HeLa (human) cells; also called PAPD5; TRF4-2
